Results as given in article PMC4686654, “A molecular ruler regulates cytoskeletal remodelling by the Rho kinases” (Nature Communications, 2015).

How the values were obtained:
[1] = biological target: T1, RBD fragment of human ROCK2 (977-1,047) (human, UniProt O75116 977-1047); test: SEC; Superdex 75 in 20 mM Tris pH 7.5, 100 mM NaCl, 1 mM TCEP, 4 mM MgCl2; conditions: both partners purified
T1 chain: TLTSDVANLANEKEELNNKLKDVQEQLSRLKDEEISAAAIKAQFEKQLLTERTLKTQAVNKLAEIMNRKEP

[2] = biological target: the molecule itself; test: as above
[3] = biological target: the molecule itself; test: static light scattering; recombinant ROCK2 in solution; mass 327 kDa, polydispersity index 1.000
[4] = biological target: human ROCK2 1-408 (kinase domain alone) (human); test: not stated; recombinant catalytic domain in solution; conditions: both partners purified

B1: RBD fragment of human ROCK2 (977-1,047) (domain or fragment)
chain: T1 chain
modifications: none; His6 tag omitted. The limits are read in O75116 numbering: the fragment is said to match the crystal-structure RBD, and ROCK1 947-1015 (RhoBD 949-1015) aligns with O75116 979-1047 (RhoBD), so …
stoichiometry N [1]: 2

B2: RBD fragment of human ROCK1 (947-1,015) (domain or fragment, UniProt Q13464 947-1015, looked up)
chain: MLTKDIEILRRENEELTEKMKKAEEEYKLEKEEEISNLKAAFEKNINTERTLKTQAVNKLAEIMNRKDF
notes: also called ROCK1 RBD; source: E. coli BL21 (DE3), purified (NiNTA, Superdex 75)
stoichiometry N [2]: 2

B3: human ROCK2 (Rho-associated coiled-coil kinase 2), full-length recombinant (enzyme)
chain: MPGAPETAPGDGAGASRQRKLEALIRDPRSPINVESLLDGLNSLVLDLDFPALRKNKNIDNFLNRYEKIVKKIRGLQMKAEDYDVVKVIGRGAFGEVQLVRHKASQKVYAMKLLSKFEMIKRSDSAFFWEERDIMAFANSPWVVQLFYAFQDDRYLYMVMEYMPGGDLVNLMSNYDVPEKWAKFYTAEVVLALDAIHSMGLIHRDVKPDNMLLDKHGHLKLADFGTCMKMDETGMVHCDTAVGTPDYISPEVLKSQGGDGFYGRECDWWSVGVFLYEMLVGDTPFYADSLVGTYSKIMDHKNSLCFPEDAEISKHAKNLICAFLTDREVRLGRNGVEEIRQHPFFKNDQWHWDNIRETAAPVVPELSSDIDSSNFDDIEDDKGDVETFPIPKAFVGNQLPFIGFTYYRENLLLSDSPSCRETDSIQSRKNEESQEIQKKLYTLEEHLSNEMQAKEELEQKCKSVNTRLEKTAKELEEEITLRKSVESALRQLEREKALLQHKNAEYQRKADHEADKKRNLENDVNSLKDQLEDLKKRNQNSQISTEKVNQLQRQLDETNALLRTESDTAARLRKTQAESSKQIQQLESNNRDLQDKNCLLETAKLKLEKEFINLQSALESERRDRTHGSEIINDLQGRICGLEEDLKNGKILLAKVELEKRQLQERFTDLEKEKSNMEIDMTYQLKVIQQSLEQEEAEHKATKARLADKNKIYESIEEAKSEAMKEMEKKLLEERTLKQKVENLLLEAEKRCSLLDCDLKQSQQKINELLKQKDVLNEDVRNLTLKIEQETQKRCLTQNDLKMQTQQVNTLKMSEKQLKQENNHLMEMKMNLEKQNAELRKERQDADGQMKELQDQLEAEQYFSTLYKTQVRELKEECEEKTKLGKELQQKKQELQDERDSLAAQLEITLTKADSEQLARSIAEEQYSDLEKEKIMKELEIKEMMARHKQELTEKDATIASLEETNRTLTSDVANLANEKEELNNKLKDVQEQLSRLKDEEISAAAIKAQFEKQLLTERTLKTQAVNKLAEIMNRKEPVKRGNDTDVRRKEKENRKLHMELKSEREKLTQQMIKYQKELNEMQAQIAEESQIRIELQMTLDSKDSDIEQLRSQLQALHIGLDSSSIGSGPGDAEADDGFPESRLEGWLSLPVRNNTKKFGWVKKYVIVSSKKILFYDSEQDKEQSNPYMVLDIDKLFHVRPVTQTDVYRADAKEIPRIFQILYANEGESKKEQEFPVEPVGEKSNYICHKGHEFIPTLYHFPTNCEACMKPLWHMFKPPPALECRRCHIKCHKDHMDKKEEIIAPCKVYYDISTAKNLLLLANSTEEQQKWVSRLVKKIPKKPPAPDPFARSSPRTSMKIQQNQSIRRPSRQLAPNKPS
modifications: mono- and diphosphorylated species, two adjacent serines (1,352-1,353)
stoichiometry N [3]: 2

B4: human ROCK2 1-408 (kinase domain alone) (domain or fragment)
chain: MPGAPETAPGDGAGASRQRKLEALIRDPRSPINVESLLDGLNSLVLDLDFPALRKNKNIDNFLNRYEKIVKKIRGLQMKAEDYDVVKVIGRGAFGEVQLVRHKASQKVYAMKLLSKFEMIKRSDSAFFWEERDIMAFANSPWVVQLFYAFQDDRYLYMVMEYMPGGDLVNLMSNYDVPEKWAKFYTAEVVLALDAIHSMGLIHRDVKPDNMLLDKHGHLKLADFGTCMKMDETGMVHCDTAVGTPDYISPEVLKSQGGDGFYGRECDWWSVGVFLYEMLVGDTPFYADSLVGTYSKIMDHKNSLCFPEDAEISKHAKNLICAFLTDREVRLGRNGVEEIRQHPFFKNDQWHWDNIRETAAPVVPELSSDIDSSNFDDIEDDKGDVETFPIPKAFVGNQLPFIGFTYYR
modifications: paper residues 1-408 on the 1,379-residue form = O75116 10-417; activation loop not phosphorylated; constitutive dimer; tag cleaved / paper residues 1-408 on the 1,379-residue form = O75116 10-417 …
stoichiometry N [4]: 2
